{"source": "patent US12551573B2", "about": "“Compositions and methods for the targeting of PCSK9” (Scribe Therapeutics Inc., priority 2022, dated 2026)", "molecules": {"B1": {"name": "DOMAIN_31935 (protein, listed as Rhinolophus ferrumequinum)", "chain": "EKIEDMAVSLIREEWLLDPSQKDLRRDNRTENYRNMFSLGGETRSENRELASKQVASAGVQPHGETAARCNGDVTGALEHGEARDLLGSRVERQRAN"}, "B2": {"name": "DOMAIN_31340 (protein, listed as Homo sapiens)", "chain": "LTFEDVAVYFSEEEWQLLNPLEKTLYNDVMQDIYETVISLGLKLKNDTGNDHPISVSTSEIQTSGCEVSKKTRMKIAQKTMGRE"}, "B3": {"name": "DOMAIN_29066 (protein, listed as Xenopus tropicalis)", "chain": "VKFDEVAVVFSEDEWNLLTDQQRGLYMEVMKENYEHLIYLGFEVPVILSLLQDGGGIGSDTVTQSKSQQVAGAEESKSSVTLEGPIPETLPS"}, "B4": {"name": "DOMAIN_32223 (protein, listed as Homo sapiens)", "chain": "GPQGARRQAFLAFGDVTVDFTQKEWRLLSPAQRALYREVTLENYSHLVSLGILHSKPELIRRLEQGEVPWGEERRRRPGP"}, "B5": {"name": "DOMAIN_29434 (protein, listed as Mus caroli)", "chain": "MTYDDVHVNFTGEEWALLSPSQKRLYKDVMLETYRNLTAIGYNWEDHNSEHFQHSRRHGRHERRHTGEKPSVYTQCGKVFAYH"}, "B6": {"name": "DOMAIN_29900 (protein)", "chain": "VAFEDVAVNFTQEEWALLNSSQKNLYREVMQETCRNLASVGSKWKDQNIEDHFEKPGKNIRKHMVQKLCESKEGSQYGEVVSQIPNL", "modifications": "Nomascus leucogenys"}, "B7": {"name": "DOMAIN_28158 (protein, listed as Odocoileus virginianus)", "chain": "QLTFEDVALSFSKEEWQIMDPNQKTLYIDVMQEIYETVTSLGLKLKNDTGNDQPVSLSTSEIQPSGCKVLRKARMKVAQTT"}, "B8": {"name": "DOMAIN_32327 (protein, listed as Homo sapiens)", "chain": "NMSQASVSFQDVTVEFTREEWQHLGPVERTLYRDVMLENYSHLISVGYCITKPKVISKLEKGEEPWSLEDEFLNQRYPGY"}, "B9": {"name": "DOMAIN_28823 (protein)", "chain": "QVPVTFEDITVYFSREQWEYLDEGQKELYREVMKENYETLISLGTGPEGFNPEVLARIKLEEESHVWDPKEPGQKEVTRSY", "modifications": "Microcaecilia unicolor"}, "B10": {"name": "DOMAIN_6356 (protein, listed as Terrapene carolina)", "chain": "MSVTFEDVAMYFSPAEWVLLGEEQKQLYRHVMWENYQTLVSLGIQISKPVVISSIERGEELWAQSPTEDEDEDILSGTSPG"}, "B11": {"name": "DOMAIN_3463 (protein, listed as Hylobates sp.)", "chain": "MMTAVSLTTRPQESVAFEDVAVYFTAKEWDIMVPAERALYRDVMLENYEAVAFVVPPTSKPALVSHLEQGKESCFTRPQGV"}, "B12": {"name": "DOMAIN_4120 (protein, listed as Macaca mulatta)", "chain": "MAFEDVAVYFSQEEWGLLDTAQRALYRHVMLENFTLVTSLGLSTSRPHVVIQLERGEEPWVPSGKDMTLARNTYRRLNAGS"}, "B13": {"name": "DOMAIN_5005 (protein, listed as Callithrix sp.)", "chain": "B12 chain with Q12E, H48L, E58D, G64V, T73A, R75G, L77R, N78T, A79T"}, "B14": {"name": "DOMAIN_5188 (protein, listed as Aotus trivirgatus)", "chain": "MITAQGPVSFRDVTVGFTQEEWQHLDPAQRTLYRDVMIENYSHLVSVGYCIPKPEVILKLEKGEEPWISEEKFPSQSHLEL"}, "B15": {"name": "DOMAIN_6738 (protein)", "chain": "FQTLLAFEDVAVFFSEEEWELLDELQKEVYKNTMRENYETLLSLGLTNMKPEIIAKIDAGEAPSVQNASYLEKRGKKSAAG", "modifications": "Microcaecilia unicolor"}, "B16": {"name": "DOMAIN_5946 (protein, listed as Homo sapiens)", "chain": "RQAFLAFGDVTVDFTQKEWRLLSPAQRALYREVTLENYSHLVSLGILHSKPELIRRLEQGEVPWGEERRRRPGPCAGIYAE"}, "B17": {"name": "DOMAIN_2754 (protein, listed as Hylobates sp.)", "chain": "MAGEAEAQLDPSLQGLVMFEDVTVYFSREEWGLLNVTQKGLYRDVMLENFALVSSLGLAPSRSPVFTQLEDDEQSWVPNWV"}, "B18": {"name": "DOMAIN_2499 (protein, listed as Pongo sp.)", "chain": "MNSEVIVDPIQGQVNFEDVFVYFSQEEWVLLDEAQRLLYRDVMLENFALMASLGHTSFMSHIGASLVMGSEPWVPDWVDMI"}, "B19": {"name": "DOMAIN_5440 (protein, listed as Aotus trivirgatus)", "chain": "MAVDLLPAQESMTFRDVAVFFSQDEWLHLDSAQRALYREVMLENYSTLVSLGIPFSMPKVIHQLQQGQDPCMVEGEVPSDI"}, "B20": {"name": "DOMAIN_6938 (protein, listed as Alligator mississippiensis)", "chain": "SKLPEAFEDVAVYFTRKEWELLEAGDKGLYQDQMLRNYQALVSLGLQGPAPDLICRMQLGEMELWVCDDEEAGESSLSEDF"}, "B21": {"name": "DOMAIN_3832 (protein, listed as Macaca mulatta)", "chain": "TMSCSRAGGITGCIKYSTASVAFRDVAVDFTQEEWRLLSPAQRTLHREVMLETYNHLVSLEIPSSKPKLIAQLERGEEPWR"}, "B22": {"name": "DOMAIN_737 (protein, listed as Pan paniscus)", "chain": "MAFEDVAVYFSQEEWGLLDTAQRALYRRVMLDNFALVASLGLSTSRPRVVIQLERGEEPWVPSGTDTTLSRTTYRRRNPGS"}, "B23": {"name": "DOMAIN_5006 (protein, listed as Callithrix sp.)", "chain": "B22 chain with G64E, T67M, L69M, T72N, Y74H"}, "B24": {"name": "DOMAIN_4121 (protein, listed as Macaca mulatta)", "chain": "B22 chain with T68I, T72N"}, "B25": {"name": "DOMAIN_2629 (protein, listed as Pongo sp.)", "chain": "MFPPARGKELLSFEDVAMYFTREEWGHLSWGQKDLYRDVMLENYRNMVLLGFQFPKPEVICQLENWDEQWILDLPRAGNRK"}, "B26": {"name": "DOMAIN_3328 (protein, listed as Hylobates sp.)", "chain": "MGLVSFKDVAVDFTQEEWQQLDPSQRTLYRDVMLENYSHLVSMGYPVSKPDVISKLEQGEEPWIIKGDISNWIYPDEYQAD"}, "B27": {"name": "DOMAIN_4516 (protein, listed as Callithrix sp.)", "chain": "MAAIPLKAQCQETVTFEDVAVHFTKTEWTGLSPAQRALYRSVMLENYGNLTAMGYLVPKPALISLLEGGDMAWGLEAQDDP"}, "B28": {"name": "DOMAIN_5125 (protein, listed as Callithrix sp.)", "chain": "MPANEDTPQPGGHGSACEVSVSFEDVTVDFSREEWQQLDSTQRRLYQDVMLENYSHLLSVGFEVPKPEVIFKLEQGEGPWT"}, "B29": {"name": "DOMAIN_6472 (protein, listed as Alligator sinensis)", "chain": "VVLLEAFEDVAVYFTQKEWALLDDGDKALYRDQMLRNYQALISLGYRGPTPALINRIQRGEMELWVCDKDYGEKSSLEGLF"}, "B30": {"name": "DOMAIN_6737 (protein)", "chain": "QMLVTFEDIAVSFSKEEWEYLDEGQKELYREVMKENYQTLISLGTGFPTVIPEIISHIEQGDEPGSEERENGKSSCSGESG", "modifications": "Microcaecilia unicolor"}, "B31": {"name": "DOMAIN_2563 (protein, listed as Pongo sp.)", "chain": "MGPQGARRQAFLAFGDVTVDFTQKEWRLLSPTQRALYREVTLENYSHLVSLGILHSKPELIRRLEQGEAPWGEERRRRPGP"}, "B32": {"name": "DOMAIN_4774 (protein, listed as Callithrix sp.)", "chain": "HGSSYEGSVSFRDVAINFSREEWRHLDLSQRNLYWDVMLETYSHLLSVGYQFPKPEVVMLEQGNEPWALQGERPRHSCPGE"}, "B33": {"name": "DOMAIN_5791 (protein, listed as Homo sapiens)", "chain": "EPGAVSFADVAVYFCREEWGCLRPAQRALYRDVMRETYGHLSALGIGGNKPALISWVEEEAELWGPAAQDPEVAKCQTQTD"}, "B34": {"name": "DOMAIN_6410 (protein, listed as Podarcis muralis)", "chain": "GLVSFDEVSVHFTNEEWALLDPGQRALYEEVMEEIREMMTSVGDVSEFLTEGEQSEPSREGAEEQKEQRKQRVQVGTYRKE"}, "B35": {"name": "DOMAIN_6697 (protein, listed as Podarcis muralis)", "chain": "B34 chain with L2S, H11R, T13S"}, "B36": {"name": "DOMAIN_6433 (protein, listed as Podarcis muralis)", "chain": "B34 chain with L2S, H11R, T13S, P57L, K80N"}, "B37": {"name": "DOMAIN_6398 (protein, listed as Gopherus agassizii)", "chain": "MPVTFEEVAVYFTEGQGALLDPAQRALYRDVMQEIYEMVISLGFLLPKPDVIIQLERGEEPWVPDLQGSAEREMSRGTCAG"}}, "note": "Where a chain is given by its changes, count along the chain named.", "data": [{"test_system": "HBEGF locus", "assay_type": "cell-based, human", "settings": "fold change in abundance of each repressor domain in the dXR library before vs after diphtheria toxin selection; dXR repression of the HBEGF gene; domains meeting p-value <0.01 and log2(fold change) >2", "values": [{"molecule": "B1", "Log2 (fold change)": 3.5544}, {"molecule": "B2", "Log2 (fold change)": 2.8261}, {"molecule": "B3", "Log2 (fold change)": 2.6393}, {"molecule": "B4", "Log2 (fold change)": 2.8836}, {"molecule": "B5", "Log2 (fold change)": 2.2707}, {"molecule": "B6", "Log2 (fold change)": 2.1583}, {"molecule": "B7", "Log2 (fold change)": 3.0762}, {"molecule": "B8", "Log2 (fold change)": 3.1024}, {"molecule": "B9", "Log2 (fold change)": 2.331}]}, {"test_system": "HBEGF locus", "assay_type": "cell-based, human", "settings": "high-throughput screen of dXR repression of the HBEGF gene; change in abundance of each domain in the library before and after diphtheria toxin selection", "values": [{"molecule": "B10", "Log2 (fold change)": 2.9197}, {"molecule": "B11", "Log2 (fold change)": 3.5462}, {"molecule": "B12", "Log2 (fold change)": 3.3237}, {"molecule": "B13", "Log2 (fold change)": 2.8406}, {"molecule": "B14", "Log2 (fold change)": 2.1842}, {"molecule": "B15", "Log2 (fold change)": 2.9275}, {"molecule": "B16", "Log2 (fold change)": 3.2998}, {"molecule": "B17", "Log2 (fold change)": 3.7601}, {"molecule": "B18", "Log2 (fold change)": 3.114}, {"molecule": "B19", "Log2 (fold change)": 2.7871}, {"molecule": "B20", "Log2 (fold change)": 2.6093}, {"molecule": "B21", "Log2 (fold change)": 2.7334}, {"molecule": "B22", "Log2 (fold change)": 4.544}, {"molecule": "B23", "Log2 (fold change)": 3.8614}, {"molecule": "B24", "Log2 (fold change)": 3.3195}, {"molecule": "B25", "Log2 (fold change)": 3.092}, {"molecule": "B26", "Log2 (fold change)": 2.3718}, {"molecule": "B27", "Log2 (fold change)": 2.7603}, {"molecule": "B28", "Log2 (fold change)": 2.911}, {"molecule": "B29", "Log2 (fold change)": 2.9259}, {"molecule": "B30", "Log2 (fold change)": 2.4861}, {"molecule": "B31", "Log2 (fold change)": 2.8105}, {"molecule": "B32", "Log2 (fold change)": 2.8894}, {"molecule": "B33", "Log2 (fold change)": 2.6823}, {"molecule": "B34", "Log2 (fold change)": 2.7633}, {"molecule": "B35", "Log2 (fold change)": 2.6712}, {"molecule": "B36", "Log2 (fold change)": 3.0313}, {"molecule": "B37", "Log2 (fold change)": 2.8238}]}]}
